{
  "source": "patent US9422541",
  "proteins": {"B1": {"name": "ScpA, bacterial C5a protease from Streptococcus pyogenes (protein)", "chain": "DANDLAPQAPAKTADTPATSKATIRDLNDPSQVKTLQEKAGKGAGTVVAVIDAGFDKNHEAWRLTDKTKARYQSKEDLEKAKKEHGITYGEWVNDKVAYYHDYSKDGKTAVDQEHGTHVSGILSGNAPSETKEPYRLEGAMPEAQLLLMRVEIVNGLADYARNYAQAIRDAVNLGAKVINMSFGNAALAYANLPDETKKAFDYAKSKGVSIVTSAGNDSSFGGKTRLPLADHPDYGVVGTPAAADSTLTVASYSPDKQLTETAMVKTDDQQDKEMPVLSTNRFEPNKAYDYAYANRGMKEDDFKDVKGKIALIERGDIDFKDKVANAKKAGAVGVLIYDNQDKGFPIELPNVDQMPAAFISRKDGLLLKDNPQKTITFNATPKVLPTASGTKLSRFSSWGLTADGNIKPDIAAPGQDILSSVANNKYAKLSGTSMSAPLVAGIMGLLQKQYETQYPDMTPSERLDLAKKVLMSSATALYDEDEKAYFSPRQQGAGAVDAKKASAATMYVTDKDNTSSKVHLNNVSDKFEVTVTVHNKSDKPQELYYQATVQTDKVDGKHFALAPKVLYEASWQKITIPANSSKQVTVPIDASRFSKDLLAQMKNGYFLEGFVRFKQDPTKEELMSIPYIGFRGDFGNLSAVEKPIYDSKDGSSYYHEANSDAKDQLDGDGLQFYALKNNFTALTTESNPWTIIKAVKEGVENIEDIESSEITETIFAGTFAKQDDDSHYYIHRHANGEPYAAISPNGDGNRDYVQFQGTFLRNAKNLVAEVLDKEGNVVWTSEVTEQVVKNYNNDLASTLGSTRFEKTRWDGKDKDGKVVANGTYTYRVRYTPISSGAKEQHTDFDVIVDNTTPEVATSATFSTEDRRLTLASKPKTSQPVYRERIAYTYMDEDLPTTEYISPNEDGTFTLPEEAETMEGATVPLKMSDFTYVVEDMAGNITYTPVTKLLEGHS"}},
  "molecular_target": "T1, Recombinant C5a produced as an N-term His-tagged fusion (HT-C5a)",
  "T1 chain": "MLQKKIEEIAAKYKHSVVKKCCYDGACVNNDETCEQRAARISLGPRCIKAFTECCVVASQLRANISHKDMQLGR",
  "data": [
    {"protein": "B1", "values": [
      {"measurement": "C5a-ase activity (SDS-PAGE of C5a treated with ScpA; 42 nM ScpA with 37 µM HT-C5a, 30 min at 20° C.)", "result": "the ScpA cleaved C5a at a single site"},
      {"measurement": "mass loss of cleaved HT-C5a by MALDI-TOF MS", "result": "a loss of 830 Da, consistent with the removal of seven residues from the C terminal"}
    ]}
  ]
}
